Laboratory results as given in patent US20250002576A1 (FUSION PHARMACEUTICALS, published 2025).
Numbering of substitutions follows the chain as printed.

T1: hCLDN18.1 (antigen of the scFv screening) (human, UniProt P56856 28-80)
T1 construct: ELISA or flow cytometry according to the selection strategy
T1 sequence (looked up): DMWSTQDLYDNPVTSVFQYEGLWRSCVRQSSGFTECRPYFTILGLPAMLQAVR

B1: YU574-D03 (antibody, V domains shown)
VH: not shown
VL: DIVMTQSPSSVSASVGDRVTITCRASQGISSWLAWYQQKPGKAPKLLIYAASSLQSGVPSRFSGSGSGTDFTLTISSLQPEDFATYYCQQANSFPLTFGGGTKVDIK
B2: YU577-H07 (antibody, V domains shown)
VH: not shown
VL: B1 VL with V3Q, V104L, D105E
B3: YU574-H09 (antibody, V domains shown)
VH: QVQLVQSGAEVKKPGASVKVSCKASGYTFTSYYMHWVRQAPGQGLEWMGIINPSGGSTSYAQKFQGRVTMTRDTSTSTVYMELSSLRSEDTAVYYCARGGSGFDYWGQGTLVTVSS
VL: not shown
B4: YU578-F02 (antibody, V domains shown)
VH: not shown
VL: DIVMTQSPSFLSASVGDRVTITCRASQGISSYLAWYQQKPGKAPKLLIYAASTLQSGVPSRFSGSGSGTEFTLTISSLQPEDFATYYCQQLNSYPITFGQGTKLEIK
B5: YU575-H03 (antibody, V domains shown)
VH: not shown
VL: QSVLTQPPSVSGAPGQRVTISCTGSSSNIGAGYDVHWYQQLPGTAPKLLIYGNSNRPSGVPDRFSGSKSGTSASLAITGLQAEDEADYYCQSYDSSLSGYVFGTGTKLTVL
B6: YU577-E08 (scFv as screened) (scFv, V domains shown)
VH: QVQLVQSGAEVKKPGASVKVSCKASGYTFTSYYMHWVRQAPGQGLEWMGIINPSGGSTSYAQKFQGRVTMTRDTSTSTVYMELSSLRSEDTAVYYCATRQFDYWGQGTLVTVSS
VL: QSVLTQPPSVSAAPGQKVTISCSGSSSNIGNNYVSWYQQLPGTAPKLLIYENNKRPSGIPDRFSGSKSGTSATLGITGLQTGDEADYYCGTWDSSLSAAVFGGGTKVTVL
B7: YU578-D01 (scFv as screened) (scFv, V domains shown)
VH: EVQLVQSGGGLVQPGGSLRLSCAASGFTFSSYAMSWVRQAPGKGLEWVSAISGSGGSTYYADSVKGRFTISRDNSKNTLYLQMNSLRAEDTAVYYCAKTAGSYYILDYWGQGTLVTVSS
VL: B1 VL with V3Q, M4L, V11L, S31N, W32Y, Y36F, L46S, R61K, A91Y, F94Y
B8: YU577-H07 (scFv as screened) (scFv, V domains shown)
VH: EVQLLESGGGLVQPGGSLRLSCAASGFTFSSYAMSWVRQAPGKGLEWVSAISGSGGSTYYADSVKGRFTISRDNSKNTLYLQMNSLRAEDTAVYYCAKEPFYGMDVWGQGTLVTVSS
VL: B1 VL with V3Q, V104L, D105E
B9: YU577-E12 (scFv as screened) (scFv, V domains shown)
VH: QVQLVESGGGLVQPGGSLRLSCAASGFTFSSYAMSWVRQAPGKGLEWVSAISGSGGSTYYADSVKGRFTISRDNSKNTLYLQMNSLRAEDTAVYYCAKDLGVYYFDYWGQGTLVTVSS
VL: B4 VL with V15A, A43G, L91V, I96L, Q100P, L104V, E105D
B10: YU577-B11 (scFv as screened) (scFv, V domains shown)
VH: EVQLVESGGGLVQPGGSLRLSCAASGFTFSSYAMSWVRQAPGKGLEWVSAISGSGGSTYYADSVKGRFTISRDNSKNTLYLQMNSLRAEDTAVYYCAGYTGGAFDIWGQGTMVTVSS
VL: B1 VL with V3Q, V104L, D105E
B11: YU574-D03 (scFv as screened) (scFv, V domains shown)
VH: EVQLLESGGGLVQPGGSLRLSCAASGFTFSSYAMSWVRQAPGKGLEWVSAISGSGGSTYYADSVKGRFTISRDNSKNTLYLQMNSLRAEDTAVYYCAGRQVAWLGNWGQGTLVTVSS
VL: B1 VL
B12: YU577-B01 (scFv as screened) (scFv, V domains shown)
VH: EVQLVESGGGVVQPGRSLRLSCAASGFTFSSYGMHWVRQAPGKGLEWVAVISYDGSNKYYADSVKGRFTISRDNSKNTLYLQMNSLRAEDTAVYYCAKDVTYYYDSSGSPDFDYWGQGTLVTVSS
VL: DIQLTQSPSSLSASVGDRVTITCRASQGISNYLAWFQQKPGKAPKSLIYAASSLQSGVPSKFSGSGSGTDFTLTISSLQPEDFATYYCQQYNSYPYSFGQGTKVEIK
B13: YU574-H09 (scFv as screened) (scFv, V domains shown)
VH: B3 VH
VL: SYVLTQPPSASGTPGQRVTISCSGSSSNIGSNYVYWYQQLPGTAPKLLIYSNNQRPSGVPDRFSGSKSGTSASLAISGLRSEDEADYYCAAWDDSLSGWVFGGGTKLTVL
B14: YU578-F02 (scFv as screened) (scFv, V domains shown)
VH: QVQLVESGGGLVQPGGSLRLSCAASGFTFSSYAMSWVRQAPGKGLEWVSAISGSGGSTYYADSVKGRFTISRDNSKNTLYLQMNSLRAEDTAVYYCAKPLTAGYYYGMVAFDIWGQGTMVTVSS
VL: B4 VL
B15: YU575-H03 (scFv as screened) (scFv, V domains shown)
VH: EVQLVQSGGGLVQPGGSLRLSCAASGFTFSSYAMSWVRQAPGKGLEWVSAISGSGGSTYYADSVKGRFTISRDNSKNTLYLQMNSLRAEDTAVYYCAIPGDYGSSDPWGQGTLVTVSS
VL: B5 VL
B16: YU574-E07 (scFv as screened) (scFv, V domains shown)
VH: QVQLQESGGGVVQPGRSLRLSCAASGFTFSSYGMHWVRQAPGKGLEWVAVISYDGSNKYYADSVKGRFTISRDNSKNTLYLQMNSLRAEDTAVYYCAKDQRGGLYGMDVWGQGTLVTVSS
VL: B5 VL with V10A, Y100W, T104G
B17: YU574-D11 (scFv as screened) (scFv, V domains shown)
VH: QVQLVQSGGGLVQPGGSLRLSCAASGFTFSSYAMSWVRQAPGKGLEWVSAISGSGGSTYYADSVKGRFTISRDNSKNTLYLQMNSLRAEDTAVYYCAGGANGFDPWGQGTLVTVSS
VL: B5 VL with Y100L, T104G

What follows are binders tested against lysozyme (assay: non-specific binding ELISA, lysozyme immobilized).
Experimental: DNA, LPS, lysozyme, and cell lysate were immobilized onto microtiter plates. Testing antibodies were added to the wells and incubated. Bound antibodies were detected via a fluorescently-labeled substrate. The fluorescence intensity was normalized to the signal of a control antibody (trastuzumab). Higher normalized signal correlates to stronger off-target or non-specific binding.

| normalized signal (fluorescence intensity normalized to trastuzumab) | Binder |
| --- | --- |
| 1.1 | B1 |
| 1.3 | B2 |
| 1.3 | B3 |
| 1 | B4 |
| 0.9 | B5 |

Each binder was assayed against T1, hCLDN18.1 (antigen of the scFv …) (assay: ELISA or flow cytometry, scFv screening).
Experimental: A naïve human antibody library was used to select CLDN18.2 antibodies and incubated with CLDN18.2 antigen or CLDN18.2-expressing cells for four rounds of biopanning, following the strategy described in Table 3. Monoclonal antibody clones were selected, produced as scFv antibodies, and screened using ELISA (clones identified from Strategy 1 or 2) or flow cytometry (clones identified from Strategy 3 or 4) to identify clones with hCLDN18.2 affinity and no hCLDN18.1 cross-reactivity. 188 such clones were and subsequently sequenced, yielding 68 unique antibodies. The unique antibodies were further screened using flow cytometry to identify clones with mCLDN18.2 affinity, yielding 50 human/mouse cross-reactive antibody clones.

| binding result | Binder |
| --- | --- |
| no binding | B6 |
| no binding | B7 |
| no binding | B8 |
| no binding | B9 |
| no binding | B10 |
| no binding | B11 |
| no binding | B12 |
| no binding | B13 |
| no binding | B14 |
| no binding | B15 |
| no binding | B16 |
| no binding | B17 |
